# Data from the supplement of paper PMC6757056.
# ± gives the standard deviation of the averaged measurements.
# B1: library; a variant is named by its letters at N, in order (parent)
# chain: GCUGUCACCGGUGCUUGGUACGUUAUAUUCAGCCGGUCUGAUGAGUCUNNNNNNAGACGAAACAGC
# How the values were obtained:
# (6R,S)-folinic acid [1] = variants of: B1; assay: normalized RNA/DNA level without ligand (relative to sTRSVctl = 100) (log10 (% of sTRSVctl)); HEK293T overexpressing SLC46A1; higher = less ribozyme self-cleavage, higher mRNA level; conditions: without (6R,S)-folinic acid; ligand present: no
# Outline: (§1)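 RNA level was computed as RNA reads over DNA reads divided by a spiked-in non-cleaving sequence or by the top sequences, then scaled and log-transformed. Scaling was ×100 with log10, the top group was 25 sequences, and the threshold was ≥100 DNA reads. The reads came from HEK293T cells transfected at 4 µg per 6-well well with ribozyme switch library plasmids (mCherry, or eGFP in some ligand experiments). Total RNA was extracted with EDTA 72 h after transfection, with any ligand added 1 h before it.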
# (6R,S)-folinic acid [2] = variants of: B1; assay: normalized RNA/DNA level with ligand (relative to sTRSVctl = 100) (log10 (% of sTRSVctl)); HEK293T overexpressing SLC46A1; ligand concentration (+) RNA-Seq: 6 mM; higher = less ribozyme self-cleavage, higher mRNA level; conditions: with (6R,S)-folinic acid; ligand present: yes
# Outline: as §1
Variant,"normalized RNA/DNA level without ligand (log10) ((6R,S)-folinic acid [1])","normalized RNA/DNA level with ligand (log10) ((6R,S)-folinic acid [2])"
GCUGUCACCGGUGCUUGGUACGUUAUAUUCAGCCGGUCUGAUGAGUCUCCAACAAGACGAAACAGC [CCAACA],2.033 ± 0.011,2 ± 0.047
GCUGUCACCGGUGCUUGGUACGUUAUAUUCAGCCGGUCUGAUGAGUCUCCAACGAGACGAAACAGC [CCAACG],2.0184 ± 0.002,2.01 ± 0.041
GCUGUCACCGGUGCUUGGUACGUUAUAUUCAGCCGGUCUGAUGAGUCUCCAACUAGACGAAACAGC [CCAACU],2.049 ± 0.0064,2.053 ± 0.02
GCUGUCACCGGUGCUUGGUACGUUAUAUUCAGCCGGUCUGAUGAGUCUCCAACCAGACGAAACAGC [CCAACC],2.027 ± 0.016,1.99 ± 0.042
GCUGUCACCGGUGCUUGGUACGUUAUAUUCAGCCGGUCUGAUGAGUCUACAAGUAGACGAAACAGC [ACAAGU],2.022 ± 0.0081,2.02 ± 0.028
GCUGUCACCGGUGCUUGGUACGUUAUAUUCAGCCGGUCUGAUGAGUCUACAAGAAGACGAAACAGC [ACAAGA],1.974 ± 0.0046,2.02 ± 0.031
GCUGUCACCGGUGCUUGGUACGUUAUAUUCAGCCGGUCUGAUGAGUCUACAAGCAGACGAAACAGC [ACAAGC],2.033 ± 0.01,2.02 ± 0.04
GCUGUCACCGGUGCUUGGUACGUUAUAUUCAGCCGGUCUGAUGAGUCUCCAAGCAGACGAAACAGC [CCAAGC],2.098 ± 0.0093,2.0623 ± 0.001
GCUGUCACCGGUGCUUGGUACGUUAUAUUCAGCCGGUCUGAUGAGUCUCCAAGGAGACGAAACAGC [CCAAGG],2 ± 0.0033,1.991 ± 0.014
GCUGUCACCGGUGCUUGGUACGUUAUAUUCAGCCGGUCUGAUGAGUCUCCAAGAAGACGAAACAGC [CCAAGA],2.0052 ± 0.00077,2.038 ± 0.0056
GCUGUCACCGGUGCUUGGUACGUUAUAUUCAGCCGGUCUGAUGAGUCUCCAAUGAGACGAAACAGC [CCAAUG],1.998 ± 0.0065,2.022 ± 0.019
GCUGUCACCGGUGCUUGGUACGUUAUAUUCAGCCGGUCUGAUGAGUCUCCAAUAAGACGAAACAGC [CCAAUA],1.994 ± 0.0075,2 ± 0.036
GCUGUCACCGGUGCUUGGUACGUUAUAUUCAGCCGGUCUGAUGAGUCUCCAAUCAGACGAAACAGC [CCAAUC],2.028 ± 0.018,1.99 ± 0.049
GCUGUCACCGGUGCUUGGUACGUUAUAUUCAGCCGGUCUGAUGAGUCUACAAAAAGACGAAACAGC [ACAAAA],1.97 ± 0.0049,1.99 ± 0.033
GCUGUCACCGGUGCUUGGUACGUUAUAUUCAGCCGGUCUGAUGAGUCUACAAAUAGACGAAACAGC [ACAAAU],1.952 ± 0.015,2.01 ± 0.053
GCUGUCACCGGUGCUUGGUACGUUAUAUUCAGCCGGUCUGAUGAGUCUCCAAACAGACGAAACAGC [CCAAAC],2.017 ± 0.015,2.03 ± 0.044
GCUGUCACCGGUGCUUGGUACGUUAUAUUCAGCCGGUCUGAUGAGUCUCCAAAGAGACGAAACAGC [CCAAAG],1.899 ± 0.0025,1.99 ± 0.025
GCUGUCACCGGUGCUUGGUACGUUAUAUUCAGCCGGUCUGAUGAGUCUCCAAAUAGACGAAACAGC [CCAAAU],1.963 ± 0.013,2 ± 0.035
GCUGUCACCGGUGCUUGGUACGUUAUAUUCAGCCGGUCUGAUGAGUCUACAACGAGACGAAACAGC [ACAACG],1.991 ± 0.019,2.06 ± 0.021
GCUGUCACCGGUGCUUGGUACGUUAUAUUCAGCCGGUCUGAUGAGUCUACAACCAGACGAAACAGC [ACAACC],2.035 ± 0.0087,2.03 ± 0.025
GCUGUCACCGGUGCUUGGUACGUUAUAUUCAGCCGGUCUGAUGAGUCUACAACUAGACGAAACAGC [ACAACU],2.014 ± 0.0094,2.03 ± 0.045
